“And” between values parts separate entries of the source, which are not always exact repeats. Equal values may be shown once.

For the series the following is noted: Mus musculus, pH 7.4, 20 °C, Tris-HCl 20 mM, whole UniProt chain shown.

B1: Adenosine deaminase wild type, P03958 (protein)
chain: MAQTPAFNKPKVELHVHLDGAIKPETILYFGKKRGIALPADTVEELRNIIGMDKPLSLPGFLAKFDYYMPVIAGCREAIKRIAYEFVEMKAKEGVVYVEVRYSPHLLANSKVDPMPWNQTEGDVTPDDVVDLVNQGLQEGEQAFGIKVRSILCCMRHQPSWSLEVLELCKKYNQKTVVAMDLAGDETIEGSSLFPGHVEAYEGAVKNGIHRTVHAGEVGSPEVVREAVDILKTERVGHGYHTIEDEALYNRLLKENMHFEVCPWSSYLTGAWDPKTTHAVVRFKNDKANYSLNTDDPLIFKSTLDTDYQMTKKDMGFTEEEFKRLNINAAKSSFLPEEEKKELLERLYREYQ
For the protein B1, the denaturant m value runs as follows: (GdnHCl, Fluorescence) 2.08 kcal/mol/M; (Urea, Fluorescence) 0.79 kcal/mol/M. For the same protein, the “denaturant midpoint (higher = more stable)” value came out at 1.91 M (GdnHCl, Fluorescence); 0.68 M (Urea, Enzyme assay); 6.19 M (Urea, Fluorescence). Moreover, the unfolding free energy runs as follows: (GdnHCl, Fluorescence) 3.98 kcal/mol; (Urea, CD) 5.78 kcal/mol and 7.39 kcal/mol; (Urea, Fluorescence) 4.89 kcal/mol.

The values above are taken from FireProtDB (doi:10.1016/j.jmb.2004.10.057).
